This note sets out measurements from paper PMC9198467 (The Journal of Biological Chemistry, 2022).

This assay has as its target His-DnaB helicase (E. coli, UniProt P0ACB0 1-471). The assay is described as follows: pull-down.

His-DnaB helicase, sequence (P0ACB0 whole entry): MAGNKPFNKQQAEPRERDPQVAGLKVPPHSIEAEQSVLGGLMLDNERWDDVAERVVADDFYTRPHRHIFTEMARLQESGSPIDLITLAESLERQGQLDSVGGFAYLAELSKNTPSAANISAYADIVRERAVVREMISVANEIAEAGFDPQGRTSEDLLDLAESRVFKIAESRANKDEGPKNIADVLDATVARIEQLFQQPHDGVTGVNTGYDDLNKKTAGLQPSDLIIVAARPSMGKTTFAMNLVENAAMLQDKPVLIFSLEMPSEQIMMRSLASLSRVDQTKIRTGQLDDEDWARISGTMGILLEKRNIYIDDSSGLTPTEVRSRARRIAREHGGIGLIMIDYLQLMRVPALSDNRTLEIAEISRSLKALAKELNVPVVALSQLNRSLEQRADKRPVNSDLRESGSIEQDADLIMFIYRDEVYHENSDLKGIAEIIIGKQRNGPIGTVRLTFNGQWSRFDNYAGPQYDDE

B1: Escherichia coli DnaA, ATP-bound form (ATP–DnaA), wild type (natural protein, E. coli, UniProt P03004 1-467, looked up)
chain: MSLSLWQQCLARLQDELPATEFSMWIRPLQAELSDNTLALYAPNRFVLDWVRDKYLNNINGLLTSFCGADAPQLRFEVGTKPVTQTPQAAVTSNVAAPAQVAQTQPQRAAPSTRSGWDNVPAPAEPTYRSNVNVKHTFDNFVEGKSNQLARAAARQVADNPGGAYNPLFLYGGTGLGKTHLLHAVGNGIMARKPNAKVVYMHSERFVQDMVKALQNNAIEEFKRYYRSVDALLIDDIQFFANKERSQEEFFHTFNALLEGNQQIILTSDRYPKEINGVEDRLKSRFGWGLTVAIEPPELETRVAILMKKADENDIRLPGEVAFFIAKRLRSNVRELEGALNRVIANANFTGRAITIDFVREALRDLLALQEKLVTIDNIQKTVAEYYKIKVADLLSKRRSRSVARPRQMAMALAKELTNHSLPEIGDAFGGRDHTTVLHACRKIEQLREESHDIKEDFSNLIRTLSS
As for B1, the binding result is listed as “binds”.
